Where a chain is given by its changes, count along the chain named. Blank lines part the entries; values can stand above or below the binder they belong to.
Key:
[1] = target: T1, biotinylated hepatocyte growth factor receptor (HGFR) (Homo sapiens (assumed; species not …, UniProt P08581, biotin); test: flow cytometry of antibody-coated beads; IgG (0.076 ug/mL) captured on Protein A Dynabeads overnight; biotinylated HGFR in PBSB at a range of concentrations at 10x molar excess, 3 h, room temperature; detected with streptavidin-AF647; median fluorescence; settings: both partners purified
T1 construct: hepatocyte growth factor receptor (c-Met, tyrosine-protein kinase Met); bought biotinylated protein; The library sorting and the scFab measurements on yeast used another construct (extracellular domain as Fc fusion, Acro Biosciences MET-H5256); also called c-Met; tyrosine-protein kinase Met; source: bought: Sino Biological 10692-H27H-B

[2] = target: T1, biotinylated hepatocyte growth factor …; test: flow cytometry of antibody-coated beads; single point; IgG (15 ug/mL) captured on Protein A Dynabeads overnight at 4 C; 1 nM biotinylated HGFR or 0.1 mg/mL biotinylated ovalbumin in PBSB, 3 h, room temperature; streptavidin-AF647; scores normalised between emibetuzumab (high) and elotuzumab (low); settings: both partners purified

T1 sequence (P08581 25-932): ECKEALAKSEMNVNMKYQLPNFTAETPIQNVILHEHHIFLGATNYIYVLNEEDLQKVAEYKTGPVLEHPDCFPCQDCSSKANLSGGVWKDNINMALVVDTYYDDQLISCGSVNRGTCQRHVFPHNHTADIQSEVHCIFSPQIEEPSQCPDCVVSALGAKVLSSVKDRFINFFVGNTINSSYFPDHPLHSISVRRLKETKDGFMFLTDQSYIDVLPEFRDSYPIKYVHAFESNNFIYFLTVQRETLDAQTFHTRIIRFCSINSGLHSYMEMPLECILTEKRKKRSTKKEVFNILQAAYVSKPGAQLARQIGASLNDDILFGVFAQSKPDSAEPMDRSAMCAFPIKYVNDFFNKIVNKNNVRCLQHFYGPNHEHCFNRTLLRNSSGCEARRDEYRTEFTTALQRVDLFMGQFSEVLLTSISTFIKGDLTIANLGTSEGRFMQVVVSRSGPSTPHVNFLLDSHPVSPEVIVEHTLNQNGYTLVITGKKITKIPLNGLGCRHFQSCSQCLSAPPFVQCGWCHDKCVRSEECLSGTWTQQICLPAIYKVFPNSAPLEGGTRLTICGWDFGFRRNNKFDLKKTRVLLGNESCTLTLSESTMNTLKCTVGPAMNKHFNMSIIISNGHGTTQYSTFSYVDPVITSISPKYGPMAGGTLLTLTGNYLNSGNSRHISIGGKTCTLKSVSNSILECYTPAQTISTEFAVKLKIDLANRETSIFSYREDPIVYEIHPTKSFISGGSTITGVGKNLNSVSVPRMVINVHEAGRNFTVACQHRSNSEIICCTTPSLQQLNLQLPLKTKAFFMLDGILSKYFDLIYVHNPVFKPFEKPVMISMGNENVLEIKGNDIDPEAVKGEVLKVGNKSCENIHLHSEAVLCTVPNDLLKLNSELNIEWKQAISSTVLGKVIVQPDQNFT

EC50 [1]: 4.4 nM
B1: emibetuzumab (wild type), soluble IgG1 (antibody, V domains shown)
VH: QVQLVQSGAEVKKPGASVKVSCKASGYTFTDYYMHWVRQAPGQGLEWMGRVNPNRRGTTYNQKFEGRVTMTTDTSTSTAYMELRSLRSDDTAVYYCARANWLDYWGQGTTVTVSS
VL: DIQMTQSPSSLSASVGDRVTITCSVSSSVSSIYLHWYQQKPGKAPKLLIYSTSNLASGVPSRFSGSGSGTDFTLTISSLQPEDFATYYCQVYSGYPLTFGGGTKVEIK

EC50 [1]: 2.4 nM | antigen binding at 1 nM HGFR relative to wild type [2]: 1.28 x of wild type
B2: EM2, emibetuzumab variant, soluble IgG1 (antibody, V domains shown)
VH: B1 VH with R55G, A99S, W101L, D103E, Y104D
VL: B1 VL

EC50 [1]: 2.6 nM | antigen binding at 1 nM HGFR relative to wild type [2]: 1.2 x of wild type
B3: EM1, emibetuzumab variant, soluble IgG1 (antibody, V domains shown)
VH: B1 VH with R55G, A99S, W101L, Y104D
VL: B1 VL

From publication PMC9249733 (Nature Communications, 2022)
